{"source": "IntAct's records for PubMed 18976727", "parents": {"B1": {"name": "Prickle-like protein 1 (Homo sapiens), Q96MT3 (parent)", "chain": "MPLEMEPKMSKLAFGCQRSSTSDDDSGCALEEYAWVPPGLRPEQIQLYFACLPEEKVPYVNSPGEKHRIKQLLYQLPPHDNEVRYCQSLSEEEKKELQVFSAQRKKEALGRGTIKLLSRAVMHAVCEQCGLKINGGEVAVFASRAGPGVCWHPSCFVCFTCNELLVDLIYFYQDGKIHCGRHHAELLKPRCSACDEIIFADECTEAEGRHWHMKHFCCLECETVLGGQRYIMKDGRPFCCGCFESLYAEYCETCGEHIGVDHAQMTYDGQHWHATEACFSCAQCKASLLGCPFLPKQGQIYCSKTCSLGEDVHASDSSDSAFQSARSRDSRRSVRMGKSSRSADQCRQSLLLSPALNYKFPGLSGNADDTLSRKLDDLSLSRQGTSFASEEFWKGRVEQETPEDPEEWADHEDYMTQLLLKFGDKSLFQPQPNEMDIRASEHWISDNMVKSKTELKQNNQSLASKKYQSDMYWAQSQDGLGDSAYGSHPGPASSRRLQELELDHGASGYNHDETQWYEDSLECLSDLKPEQSVRDSMDSLALSNITGASVDGENKPRPSLYSLQNFEEMETEDCEKMSNMGTLNSSMLHRSAESLKSLSSELCPEKILPEEKPVHLPVLRRSKSQSRPQQVKFSDDVIDNGNYDIEIRQPPMSERTRRRVYNFEERGSRSHHHRRRRSRKSRSDNALNLVTERKYSPKDRLRLYTPDNYEKFIQNKSAREIQAYIQNADLYGQYAHATSDYGLQNPGMNRFLGLYGEDDDSWCSSSSSSSDSEEEGYFLGQPIPQPRPQRFAYYTDDLSSPPSALPTPQFGQRTTKSKKKKGHKGKNCIIS", "partner": "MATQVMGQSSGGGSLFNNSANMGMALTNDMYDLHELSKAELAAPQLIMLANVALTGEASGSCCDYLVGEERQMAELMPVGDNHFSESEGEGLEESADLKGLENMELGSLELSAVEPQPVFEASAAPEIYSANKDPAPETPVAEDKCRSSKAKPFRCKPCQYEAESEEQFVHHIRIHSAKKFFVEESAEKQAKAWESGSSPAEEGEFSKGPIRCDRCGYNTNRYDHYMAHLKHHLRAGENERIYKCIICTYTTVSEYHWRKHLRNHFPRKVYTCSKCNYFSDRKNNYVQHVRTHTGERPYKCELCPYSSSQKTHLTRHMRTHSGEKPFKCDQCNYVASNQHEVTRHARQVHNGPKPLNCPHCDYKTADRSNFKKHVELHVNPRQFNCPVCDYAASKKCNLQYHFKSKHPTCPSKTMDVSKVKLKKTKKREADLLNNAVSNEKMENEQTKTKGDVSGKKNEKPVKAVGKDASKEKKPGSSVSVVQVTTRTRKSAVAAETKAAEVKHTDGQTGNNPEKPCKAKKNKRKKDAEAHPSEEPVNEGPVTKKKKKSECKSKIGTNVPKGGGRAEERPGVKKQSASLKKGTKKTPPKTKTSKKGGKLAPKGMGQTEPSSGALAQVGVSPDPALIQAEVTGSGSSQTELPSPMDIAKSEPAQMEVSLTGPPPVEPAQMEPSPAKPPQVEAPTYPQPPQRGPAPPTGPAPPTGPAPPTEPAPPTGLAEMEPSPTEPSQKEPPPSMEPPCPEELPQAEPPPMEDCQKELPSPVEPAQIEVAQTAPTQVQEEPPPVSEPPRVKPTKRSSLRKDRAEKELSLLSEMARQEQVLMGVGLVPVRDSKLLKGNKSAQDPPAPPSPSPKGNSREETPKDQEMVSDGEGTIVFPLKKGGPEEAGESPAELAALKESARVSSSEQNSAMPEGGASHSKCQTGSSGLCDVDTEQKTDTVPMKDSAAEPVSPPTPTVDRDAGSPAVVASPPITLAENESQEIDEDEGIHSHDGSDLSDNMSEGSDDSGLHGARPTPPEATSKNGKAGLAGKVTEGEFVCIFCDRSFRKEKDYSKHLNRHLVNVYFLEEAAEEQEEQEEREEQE"}}, "data": [{"variants_of": "B1", "conditions": "with rest_mouse Rest", "values": [{"variant": "R104Q", "effect of a mutation on the interaction": "decreasing interaction"}]}]}
